Measurements taken from the supplement of paper PMC12764529.
± gives the half width of the 95% confidence interval.

Assay: folding stability dG unfold from trypsin proteolysis; higher = more stable
How it was run: (§1)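 Digests were run with trypsin and chymotrypsin at 11 concentrations in threefold dilutions, plus a no-protease condition, on designed mini-proteins in a PA-tagged cDNA display construct. The mini-proteins were under 80 residues, had no cysteine, and were kept only when AlphaFold2 dimer inter-PAE was above 15. After sequencing, Bayesian fitting of the counts gave K50, from which unfolding free energy was derived against a sequence-predicted unfolded-state K50 and a shared folded-state K50, per protease or combined.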

Sequence | folding stability dG unfold [kcal/mol]
SAGGSVKIKIKVPKDNPEAKKLAEKLRKLPGVKEVKVKKVKEINGYLVLEIEVEVSPEVKEKLKELLSAGGS [r16_394_TrROS_Hall] | 2.71 ± 0.25
SAGGITVEVEYERTEGGYYRVTVTLRDPDGNPIEIEYPMPPGDPGMTQDEMKDKAVEWALKIAQELNSAGGS [r8_123_TrROS] | 3.94 ± 0.12
SAGGSAGGSAGGDITIDTEQMPNGWHTVKVRLPNGKPIAPVPMPPGMTPEEAVKRALDRLSAGGSAGGSAGG [r7_444_TrROS] | 0.0871 ± 0.065
SAGGSAGGSAGKTYEIVEYNPETKKFLIRFEDGSTKEVEVKPGDKIEVPPGAKVEIVPLDSAGGSAGGSAGG [r17_295_TrROS_Hall] | 1.94 ± 0.069
SAGGLVLPPDAVVTGTLTAPRPDGSTVTVRARVRFPPRPPPPPLVLVRLPDGSVRPVRSLEEARRLASAGGS [r16_580_TrMRF] | 3.16 ± 0.11
SAGPVIATADVEVYEDGTAKITLTLRTLTENGELLPDVTLPITLPLPPGSKATITVNLDDGEITITVGDSAG [r5_179_TrMRF] | 4.07 ± 0.12
SAGGSAGGSAPVIRIEVDGKVYEIPADVLKEKGLTIEELAEELEKKHNIKVEKVEDGTIRVTSAGGSAGGSA [r18_7_TrROS_Hall] | 1.66 ± 0.067
SAGGSALLEALKKLAEELGLEVELEEVRVETETRTETRTLPDGRTETRTETEVRVEVKVTVRPKPASAGGSA [r15_561_TrROS_Hall] | 2.59 ± 0.075
SAGGSAGGSAGMVEVYSEPDGTVIVKETVPGKVVITVLEKVPGGPGLNPVTTTVVPPGLLSAGGSAGGSAGG [r11_844_JUSTAS] | 1.4 ± 0.037
SAGGMPLRFRIEVYKTETYYDPSTGKEVTKVEPLPELEIEAPPNTPLEAILAALDLPEDYYISRIGVESAGG [r13_716_TrMRF] | 2.06 ± 0.065
SAGYIRIEKDNDYYKIEFLFPPNDPSLIENLVEAIRQKGWKVKDVEVEVEPNKDGMYRVEIDFKIKPPDSAG [r5_739_TrROS] | 2.53 ± 0.12
SVRIHGPDGQWFPVDDIEFDPNNNKFTFKFPGGKHKFPLPPGWQIEIDKDNAWIRVRPMPPPPPEDKEAKSA [r9_551_TrROS] | 2.88 ± 0.24
SAGGSAGGSKKKPPPVKVKIRVVVDGKVYEIEIEVDPNMTVEEIKEALRKLLGPDIKEVEIEPSAGGSAGGS [r12_300_TrROS_Hall] | 2.91 ± 0.29
SAGGSGATYLSKYEIPLPNGKKLTIIEAYKNPETDLILYIAKTDDGTEYPFVYPSSWSPEDAIKALISSAGG [r13_470_TrMRF] | 2.25 ± 0.082
SAGGSAGGSITTVTGVYKTPDGNPTAATFEVANKPDGTVTYTVTVPGTGKTFSTDSLDLVTVDGSAGGSAGG [r6_255_JUSTAS] | 0.296 ± 0.027
SAGGSAGGGPRAVPVGELELVLGDLVVRVRFFRNPESDSVSVRVEVRPLPPISAEELARLGEEGSAGGSAGG [r6_177_TrMRF] | 1.67 ± 0.062
SAGGSAGGSAGFFIRIEPPNGEKVHFPMPPNQLPELAEEFPGLKIDDIDEGNGWIWVEVPSAGGSAGGSAGG [r17_22_TrROS] | -0.0744 ± 0.23
SAGGSAPFKIAEIESVEYDPNEGRPTIRITIEHDGRPVEIWVPPGGIQIFNMGDGEPIKEIPLDEISAGGSA [r15_85_TrROS] | 0.182 ± 0.25
SAGGSANDKDGQKKKQIKPIKIELPIPPGMEIEEINPGNGMIMIRWPENGWTWMFSLDDGKIFVMDSAGGSA [r15_452_TrROS] | 1.54 ± 0.058
SAGGSAGGSAGTSIKEAKIKLPSNGKTYKAIVTTHPNGKKYVYIPETGKVYELNNLIIEPSAGGSAGGSAGG [r11_301_TrMRF] | 1.4 ± 0.047
SAGGSMTLTIEVDGKTVEITEVREKEDGEKVVRIRVTTPDGEEKEIEMTLDELAEILGLSKEELEPSAGGSA [r2_262_TrROS_Hall] | 3.75 ± 0.19

Sequence | folding stability dG unfold [kcal/mol]
SAGPKIELEVDPENPNVARAKVIDPANGEEIDEVEVPVTTLPDGTVLVPAKIKYKGSGKTLELPFTVEGSAG [r5_610_TrMRF] | -0.4 ± 0.44
SASSETFEIEVKVKLFFRDPEKGKLVEREFDAIVKVTVNPETGEVKVEVYFKPLGKPVTITLPPGASIESAG [r14_587_TrMRF] | 3.13 ± 0.2
SAGGMQKAIDIAKELGWKILDVDPEKKVVKVKPPDSDVEVTITVDDESTVTITTKNPGSDVVETIPESAGGS [r16_197_JUSTAS] | 1.38 ± 0.091
SAGGSAGGSAGMKYKATIPLPDGTTLTYESEDPEKAIEEITKETGVPKSKITITPIPELESAGGSAGGSAGG [r17_169_JUSTAS] | 0.33 ± 0.03
SSPGKITTYEVTLTLPGPRPMTSTVDPSGVMTATVPDGTKITATIVPGPGTLTITTTFPDGTTSTSTISASA [r9_99_JUSTAS] | 1.26 ± 0.061
SAGGSMVLTLEEESEEGVLRVTELHFYPGEVTVTTRTFEIAPDGSVRSATESTTVIPVPPSALAEASAGGSA [r2_474_JUSTAS] | 1.37 ± 0.051
SAGGSAGGSAGGSGAEELAKKLQEKLEELGLEAEITVEYDEETNELTITITVDGKEYEFSAGGSAGGSAGGS [r4_312_TrROS_Hall] | 2.24 ± 0.13
SMPNTIEEIRFTFTLPDDTPVESEVDPDGKVTGTYPDGLKIEATLEPDSGKLTVKVTFPDGLPAEATIDLSA [r9_99_TrMRF] | 1.6 ± 0.09
SAGGSAGGMKIVVEEVDEEKGYVRIRIEDPETKEEKEIVVKVKTPEEAEALAKKLAEAGYEVETSAGGSAGG [r6_796_TrROS_Hall] | 1.27 ± 0.045
SAGGSAGGSAGKPEVKVEAEVEPYPETDLVVVNVRVYVDGVPVEIPFVVPPSVAEAFLKASAGGSAGGSAGG [r11_700_TrMRF] | 1.08 ± 0.03
SAGGSASMIVKEVKDKVDPAGSVPPDAVIRLETKVDPATGVWTIKVYTEEGKEIGESTVFVKPGILSAGGSA [r15_134_JUSTAS] | 0.447 ± 0.054
SEAEAVTFPVPNPEDGELVADLAVARNPETGEWTVRLEHEDGKTVEVTFPEDEELPVDGLPPGLRATFTGSA [r9_1150_TrMRF] | -0.195 ± 0.12
SAGGSAGGSAAMLNRKPTVYPLPDDTVRLEETVPSPGTKIYKTIKLPPGGLIEEGDVSYPPSAGGSAGGSAG [r3_165_JUSTAS] | -1.08 ± 0.31
SAGGSASPVFVATRISLPGGNASVDTSRYDPSSGTLTITVTLPDGTTTTITLTGPVSEYPADRLLLSAGGSA [r15_596_JUSTAS] | 1.04 ± 0.022
SAGGMTVETTTVTLAAGTTYTVTTPSDSTVEVVDTETGVVRRFDVPASTDFSVTLPADRTYDITVVRRSAGG [r19_78_JUSTAS] | 0.7932 ± 0.0053
SAGGSMLEKEEGDTLVKTVLQPVPEDLSREVLVTTTTKLLPNGSEVTVTVRSPFTGEPLSSSVVLSSAGGSA [r2_412_JUSTAS] | 0.458 ± 0.054
SAGGSAGGSAGGSKYVVIRVKKSVDELKDALKKAGFKVKIVSVYYDKENKEIYVVVKIESAGGSAGGSAGGS [r4_315_TrROS_Hall] | 3.7 ± 0.15
EVETYPDGTVVTTLPPEVTADIPADEPVNLRTLIFDPDGYLYLSTATRTPDGTVTYTVSITPIPVGPELLLS [r1_394_JUSTAS] | 1.44 ± 0.029
SAGMVIVIDKKKKKIYIFAPSKEMAEKIAKELNLKDVKVYEKGTSIEELLKKHPDVEKVIVLPAEELKSAGG [r19_270_TrROS_Hall] | 1.45 ± 0.049
SAGGVIPPSATITTLKTYPDGTVLTNVTFPDGTPMTVTLTRETLPDGSVVLKFTNPATGEELATFPVSSAGG [r13_527_JUSTAS] | 1.93 ± 0.063
SAGGSAGGSNDPPEIKIDYEYNPNNGMYTANITIPNGRKLKITFPGDDAEDAEEQAKNLIEKLSAGGSAGGS [r12_339_TrROS] | 0.539 ± 0.089

Assay: folding stability dG unfold from chymotrypsin proteolysis; higher = more stable
How it was run: as §1

Sequence | folding stability dG unfold [kcal/mol]
SAGGSVKIKIKVPKDNPEAKKLAEKLRKLPGVKEVKVKKVKEINGYLVLEIEVEVSPEVKEKLKELLSAGGS [r16_394_TrROS_Hall] | 2.75 ± 0.18
SAGGITVEVEYERTEGGYYRVTVTLRDPDGNPIEIEYPMPPGDPGMTQDEMKDKAVEWALKIAQELNSAGGS [r8_123_TrROS] | 3.971 ± 0.031
SAGGSAGGSAGGDITIDTEQMPNGWHTVKVRLPNGKPIAPVPMPPGMTPEEAVKRALDRLSAGGSAGGSAGG [r7_444_TrROS] | -0.407 ± 0.25
SAGGSAGGSAGKTYEIVEYNPETKKFLIRFEDGSTKEVEVKPGDKIEVPPGAKVEIVPLDSAGGSAGGSAGG [r17_295_TrROS_Hall] | 1.76 ± 0.1
SAGGLVLPPDAVVTGTLTAPRPDGSTVTVRARVRFPPRPPPPPLVLVRLPDGSVRPVRSLEEARRLASAGGS [r16_580_TrMRF] | 3.76 ± 0.059
SAGPVIATADVEVYEDGTAKITLTLRTLTENGELLPDVTLPITLPLPPGSKATITVNLDDGEITITVGDSAG [r5_179_TrMRF] | 3.79 ± 0.16
SAGGSAGGSAPVIRIEVDGKVYEIPADVLKEKGLTIEELAEELEKKHNIKVEKVEDGTIRVTSAGGSAGGSA [r18_7_TrROS_Hall] | 2.41 ± 0.039
SAGGSALLEALKKLAEELGLEVELEEVRVETETRTETRTLPDGRTETRTETEVRVEVKVTVRPKPASAGGSA [r15_561_TrROS_Hall] | 2.72 ± 0.1
SAGGSAGGSAGMVEVYSEPDGTVIVKETVPGKVVITVLEKVPGGPGLNPVTTTVVPPGLLSAGGSAGGSAGG [r11_844_JUSTAS] | 0.786 ± 0.058
SAGGMPLRFRIEVYKTETYYDPSTGKEVTKVEPLPELEIEAPPNTPLEAILAALDLPEDYYISRIGVESAGG [r13_716_TrMRF] | 2.55 ± 0.026
SAGYIRIEKDNDYYKIEFLFPPNDPSLIENLVEAIRQKGWKVKDVEVEVEPNKDGMYRVEIDFKIKPPDSAG [r5_739_TrROS] | 3.31 ± 0.099
SVRIHGPDGQWFPVDDIEFDPNNNKFTFKFPGGKHKFPLPPGWQIEIDKDNAWIRVRPMPPPPPEDKEAKSA [r9_551_TrROS] | 2.25 ± 0.061
SAGGSAGGSKKKPPPVKVKIRVVVDGKVYEIEIEVDPNMTVEEIKEALRKLLGPDIKEVEIEPSAGGSAGGS [r12_300_TrROS_Hall] | 1.93 ± 0.25
SAGGSGATYLSKYEIPLPNGKKLTIIEAYKNPETDLILYIAKTDDGTEYPFVYPSSWSPEDAIKALISSAGG [r13_470_TrMRF] | 2.91 ± 0.034
SAGGSAGGSITTVTGVYKTPDGNPTAATFEVANKPDGTVTYTVTVPGTGKTFSTDSLDLVTVDGSAGGSAGG [r6_255_JUSTAS] | 0.563 ± 0.072
SAGGSAGGGPRAVPVGELELVLGDLVVRVRFFRNPESDSVSVRVEVRPLPPISAEELARLGEEGSAGGSAGG [r6_177_TrMRF] | 3.52 ± 0.049
SAGGSAGGSAGFFIRIEPPNGEKVHFPMPPNQLPELAEEFPGLKIDDIDEGNGWIWVEVPSAGGSAGGSAGG [r17_22_TrROS] | -0.453 ± 0.47
SAGGSAPFKIAEIESVEYDPNEGRPTIRITIEHDGRPVEIWVPPGGIQIFNMGDGEPIKEIPLDEISAGGSA [r15_85_TrROS] | 0.434 ± 0.48
SAGGSANDKDGQKKKQIKPIKIELPIPPGMEIEEINPGNGMIMIRWPENGWTWMFSLDDGKIFVMDSAGGSA [r15_452_TrROS] | 2.13 ± 0.19
SAGGSAGGSAGTSIKEAKIKLPSNGKTYKAIVTTHPNGKKYVYIPETGKVYELNNLIIEPSAGGSAGGSAGG [r11_301_TrMRF] | 2.32 ± 0.055
SAGGSMTLTIEVDGKTVEITEVREKEDGEKVVRIRVTTPDGEEKEIEMTLDELAEILGLSKEELEPSAGGSA [r2_262_TrROS_Hall] | 2.67 ± 0.085
